{
  "source": "paper PMC13022674",
  "about": "“Thymine DNA glycosylase binds to R-loops and excises 5-formyl and 5-carboxyl cytosine from DNA/RNA hybrids”",
  "binders": {"B1": {"name": "D1-UF (dsDNA)", "DNA 1": "TGAGGATGTATATATCTGAUGCGCCGGTGGAGC", "DNA 2": "GCTCCACCGGCGCGTACGATATATACATCCTCA", "modifications": "2'-deoxy-2'-fluoroarabinouridine (UF) at strand 1 pos 20"}, "B2": {"name": "D1-5caC (dsDNA)", "DNA 1": "TGAGGATGTATATATCTGACGCGCCGGTGGAGC", "DNA 2": "GCTCCACCGGCGCGTACGATATATACATCCTCA", "modifications": "5-carboxycytosine at strand 1 pos 20"}, "B3": {"name": "H1-5caC (DNA:RNA)", "DNA": "TGAGGATGTATATATCTGACGCGCCGGTGGAGC", "RNA": "GCUCCACCGGCGCGUACGAUAUAUACAUCCUCA", "modifications": "5-carboxycytosine at strand 1 pos 20; strand 2 RNA"}, "B4": {"name": "TCF21-DNA (unmodified) (dsDNA)", "DNA 1": "TCCTAGTGTCCACCAAATTCCTCAGCGCTCGCTCACCCTCCTCTACGGCCACGACTCTGGGAGTG", "DNA 2": "CACTCCCAGAGTCGTGGCCGTAGAGGAGGGTGAGCGAGCGCTGAGGAATTTGGTGGACACTAGGA"}, "B5": {"name": "D1-C (dsDNA)", "DNA 1": "TGAGGATGTATATATCTGACGCGCCGGTGGAGC", "DNA 2": "GCTCCACCGGCGCGTACGATATATACATCCTCA"}, "B6": {"name": "H1-C (DNA:RNA)", "DNA": "TGAGGATGTATATATCTGACGCGCCGGTGGAGC", "RNA": "GCUCCACCGGCGCGUACGAUAUAUACAUCCUCA", "modifications": "strand 2 RNA"}, "B7": {"name": "D2-C (dsDNA)", "DNA 1": "TGTGTCACCACTGCTCACGTACAGAGCTG", "DNA 2": "CAGCTCTGTACGTGAGCAGTGGTGACAC"}, "B8": {"name": "H2-C (DNA:RNA)", "DNA": "TGTGTCACCACTGCTCACGTACAGAGCTG", "RNA": "CAGCUCUGUACGUGAGCAGUGGUGACAC", "modifications": "strand 2 RNA"}, "B9": {"name": "D1-5fC (dsDNA)", "DNA 1": "TGAGGATGTATATATCTGACGCGCCGGTGGAGC", "DNA 2": "GCTCCACCGGCGCGTACGATATATACATCCTCA", "modifications": "5-formylcytosine at strand 1 pos 20"}, "B10": {"name": "H1-5fC (DNA:RNA)", "DNA": "TGAGGATGTATATATCTGACGCGCCGGTGGAGC", "RNA": "GCUCCACCGGCGCGUACGAUAUAUACAUCCUCA", "modifications": "5-formylcytosine at strand 1 pos 20; strand 2 RNA"}},
  "key": {"[1]": {"target": "T1, TDG (thymine DNA glycosylase) (human, UniProt Q13569 1-410)", "T1 sequence (Q13569 whole entry)": "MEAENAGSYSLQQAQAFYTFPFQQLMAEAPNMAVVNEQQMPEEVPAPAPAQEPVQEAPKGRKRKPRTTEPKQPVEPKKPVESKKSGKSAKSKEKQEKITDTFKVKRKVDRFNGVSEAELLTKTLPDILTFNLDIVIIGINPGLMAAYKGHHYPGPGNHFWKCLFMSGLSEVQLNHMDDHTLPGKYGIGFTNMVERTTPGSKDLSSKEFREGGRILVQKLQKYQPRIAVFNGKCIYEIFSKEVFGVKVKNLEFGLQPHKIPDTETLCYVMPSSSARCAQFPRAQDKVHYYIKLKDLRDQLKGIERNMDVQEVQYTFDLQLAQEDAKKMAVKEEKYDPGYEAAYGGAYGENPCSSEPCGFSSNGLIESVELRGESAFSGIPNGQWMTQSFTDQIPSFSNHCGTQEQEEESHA", "experiment": "EMSA; Hill 1.8; EMSA: 5 nM substrate, 100 mM NaCl, 2.5 mM MgCl2, 10 mM Tris-HCl pH 7.5, 5% glycerol, 30 min 30 C, 0.6% agarose 1x TBE 4 C; NMR: 0.1 M NaCl, 0.03 mM TCEP, 15 mM", "details": "protein: recombinant; tags: His tag (pET28a, TALON purified); label: 5'-FAM strand 1; blunt; G-UF pair intended"}, "[2]": {"target": "T1, TDG (thymine DNA glycosylase)", "experiment": "EMSA; Hill 2.0; EMSA: 5 nM substrate, 100 mM NaCl, 2.5 mM MgCl2, 10 mM Tris-HCl pH 7.5, 5% glycerol, 30 min 30 C, 0.6% agarose 1x TBE 4 C; NMR: 0.1 M NaCl, 0.03 mM TCEP, 15 mM", "details": "protein: recombinant; tags: His tag (pET28a, TALON purified); label: 5'-FAM strand 1; blunt"}, "[3]": {"target": "T1, TDG (thymine DNA glycosylase)", "experiment": "EMSA; Hill 2.7; EMSA: 5 nM substrate, 100 mM NaCl, 2.5 mM MgCl2, 10 mM Tris-HCl pH 7.5, 5% glycerol, 30 min 30 C, 0.6% agarose 1x TBE 4 C; NMR: 0.1 M NaCl, 0.03 mM TCEP, 15 mM", "details": "protein: recombinant; tags: His tag (pET28a, TALON purified); label: 5'-FAM strand 1; blunt"}, "[4]": {"target": "T1, TDG (thymine DNA glycosylase)", "experiment": "EMSA; EMSA: 5 nM substrate, 100 mM NaCl, 2.5 mM MgCl2, 10 mM Tris-HCl pH 7.5, 5% glycerol, 30 min 30 C, 0.6% agarose 1x TBE 4 C; NMR: 0.1 M NaCl, 0.03 mM TCEP, 15 mM", "details": "protein: recombinant; tags: His tag (pET28a, TALON purified); blunt"}, "[5]": {"target": "T1, TDG (thymine DNA glycosylase)", "experiment": "EMSA; Hill 2.3; EMSA: 5 nM substrate, 100 mM NaCl, 2.5 mM MgCl2, 10 mM Tris-HCl pH 7.5, 5% glycerol, 30 min 30 C, 0.6% agarose 1x TBE 4 C; NMR: 0.1 M NaCl, 0.03 mM TCEP, 15 mM", "details": "protein: recombinant; tags: His tag (pET28a, TALON purified); label: 5'-FAM strand 1; blunt"}, "[6]": {"target": "T1, TDG (thymine DNA glycosylase)", "experiment": "EMSA; Hill 4.5; EMSA: 5 nM substrate, 100 mM NaCl, 2.5 mM MgCl2, 10 mM Tris-HCl pH 7.5, 5% glycerol, 30 min 30 C, 0.6% agarose 1x TBE 4 C; NMR: 0.1 M NaCl, 0.03 mM TCEP, 15 mM", "details": "protein: recombinant; tags: His tag (pET28a, TALON purified); label: 5'-FAM strand 1; blunt"}, "[7]": {"target": "T1, TDG (thymine DNA glycosylase)", "experiment": "EMSA; Hill 2.9; EMSA: 5 nM substrate, 100 mM NaCl, 2.5 mM MgCl2, 10 mM Tris-HCl pH 7.5, 5% glycerol, 30 min 30 C, 0.6% agarose 1x TBE 4 C; NMR: 0.1 M NaCl, 0.03 mM TCEP, 15 mM", "details": "protein: recombinant; tags: His tag (pET28a, TALON purified); label: 5'-FAM strand 1; 5' overhang 1 nt (strand 1)"}, "[8]": {"target": "T1, TDG (thymine DNA glycosylase)", "experiment": "EMSA; Hill 6.1; EMSA: 5 nM substrate, 100 mM NaCl, 2.5 mM MgCl2, 10 mM Tris-HCl pH 7.5, 5% glycerol, 30 min 30 C, 0.6% agarose 1x TBE 4 C; NMR: 0.1 M NaCl, 0.03 mM TCEP, 15 mM", "details": "protein: recombinant; tags: His tag (pET28a, TALON purified); label: 5'-FAM strand 1; 5' overhang 1 nt (strand 1)"}, "[9]": {"target": "T1, TDG (thymine DNA glycosylase)", "experiment": "EMSA; Hill 3.0; EMSA: 5 nM substrate, 100 mM NaCl, 2.5 mM MgCl2, 10 mM Tris-HCl pH 7.5, 5% glycerol, 30 min 30 C, 0.6% agarose 1x TBE 4 C; NMR: 0.1 M NaCl, 0.03 mM TCEP, 15 mM", "details": "protein: recombinant; tags: His tag (pET28a, TALON purified); label: 5'-FAM strand 1; blunt"}, "[10]": {"target": "T1, TDG (thymine DNA glycosylase)", "experiment": "EMSA; Hill 4.9; EMSA: 5 nM substrate, 100 mM NaCl, 2.5 mM MgCl2, 10 mM Tris-HCl pH 7.5, 5% glycerol, 30 min 30 C, 0.6% agarose 1x TBE 4 C; NMR: 0.1 M NaCl, 0.03 mM TCEP, 15 mM", "details": "protein: recombinant; tags: His tag (pET28a, TALON purified); label: 5'-FAM strand 1; blunt"}},
  "data": [
    {"binder": "B1", "values": [
      {"measurement": "Kd", "setting": "[1]", "result": 32, "unit": "nM"}
    ]},
    {"binder": "B2", "values": [
      {"measurement": "Kd", "setting": "[2]", "result": 25, "unit": "nM"}
    ]},
    {"binder": "B3", "values": [
      {"measurement": "Kd", "setting": "[3]", "result": 31, "unit": "nM"}
    ]},
    {"binder": "B4", "values": [
      {"measurement": "Kd", "setting": "[4]", "result": 49, "unit": "nM"}
    ]},
    {"binder": "B5", "values": [
      {"measurement": "Kd", "setting": "[5]", "result": 43, "unit": "nM"}
    ]},
    {"binder": "B6", "values": [
      {"measurement": "Kd", "setting": "[6]", "result": 67, "unit": "nM"}
    ]},
    {"binder": "B7", "values": [
      {"measurement": "Kd", "setting": "[7]", "result": 47, "unit": "nM"}
    ]},
    {"binder": "B8", "values": [
      {"measurement": "Kd", "setting": "[8]", "result": 57, "unit": "nM"}
    ]},
    {"binder": "B9", "values": [
      {"measurement": "Kd", "setting": "[9]", "result": 56, "unit": "nM"}
    ]},
    {"binder": "B10", "values": [
      {"measurement": "Kd", "setting": "[10]", "result": 60, "unit": "nM"}
    ]}
  ]
}
